Source: US20120316071A1 (published 2012)

Columns and labels:
[1] = molecular target: T1, rHuman ErbB2/Fc Chimera, CF (R&D Systems Cat#1129-ER) (human, UniProt P04626 23-652); assay: MSD multispot ECL, antigen spotted, Fab 148.9 nM; blank spot 218
T1 construct: Bought reagent; also called human epidermal growth factor 2 receptor

[2] = molecular target: T2, rHuman IGF-1 sR, (IGF-1 sR), CF (R&D Systems Cat#391-GR) (human, UniProt P08069 31-932); assay: as above
T2 construct: Bought soluble receptor; also called insulin-like growth factor-1 soluble receptor

[3] = molecular target: T3, rHuman Erythropoietin R/Fc Chimera, CF (R&D Systems Cat#963-ER) (human, UniProt P19235 25-250); assay: as above
T3 construct: Bought reagent; also called EPO R/Fc; Epo R
T3 sequence (looked up): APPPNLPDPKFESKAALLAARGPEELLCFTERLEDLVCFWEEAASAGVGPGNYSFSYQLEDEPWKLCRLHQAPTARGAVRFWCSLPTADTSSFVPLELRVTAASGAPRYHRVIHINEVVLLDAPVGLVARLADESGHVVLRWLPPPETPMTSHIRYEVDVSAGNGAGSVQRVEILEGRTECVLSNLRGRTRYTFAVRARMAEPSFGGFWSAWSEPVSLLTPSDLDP

[4] = molecular target: T4, Recombinant Human DLL4 (R&D Systems Cat#1506-D4/CF) (human, UniProt Q9NR61 27-524); assay: MSD multispot ECL, antigen spotted on plate, Fab 352.5 nM; blank spot 494
T4 construct: Bought from R&D Systems; also called rHuman DLL4; delta-like protein 4

[5] = molecular target: T5, rHuman EGF R/Fc Chimera, CF (R&D Systems Cat#344-ER) (human, UniProt P00533 25-645); assay: as above
T5 construct: Bought from R&D Systems; also called epidermal growth factor receptor (EGF R); not shown: Fc of the bought chimera

[6] = molecular target: T6, rHuman HGF R/c-MET/Fc Chimera, CF (R&D Systems Cat#358-MT/CF) (human, UniProt P08581 25-932); assay: as above
T6 construct: Bought from R&D Systems; also called HGF R/Fc; hepatocyte growth factor receptor (HGF R/c-Met); not shown: Fc of the bought chimera

[7] = molecular target: T7, rHuman Notch-1/Fc Chimera, CF (R&D Systems Cat#3647-TK) (human, UniProt P46531 19-526); assay: as above
T7 construct: Bought from R&D Systems; not shown: Fc of the bought chimera

[8] = molecular target: T8, rHuman CD44/Fc Chimera, CF (R&D Systems Cat#3660-CD) (human, UniProt P16070 21-220); assay: as above
T8 construct: Bought from R&D Systems; not shown: Fc of the bought chimera

[9] = molecular target: T9, rHuman IGF-1 sR, (IGF-1 sR), CF (R&D Systems Cat#391-GR) (human, UniProt P08069 31-932); assay: as above
T9 construct: Bought from R&D Systems and called a soluble receptor; also called insulin-like growth factor-1 soluble receptor

[10] = molecular target: T10, rHuman P-Cadherin/Fc Chimera, CF (R&D Systems Cat#861-PC) (human, UniProt P22223 108-654); assay: as above
T10 construct: Bought from R&D Systems; not shown: Fc of the bought chimera

[11] = molecular target: T11, rHuman Erythropoietin R/Fc Chimera, CF (R&D Systems Cat#963-ER) (human, UniProt P19235 25-250); assay: as above
T11 construct: Bought from R&D Systems; also called EPO R/Fc; Epo R/Fc chimera; not shown: Fc of the bought chimera
T11 sequence (looked up): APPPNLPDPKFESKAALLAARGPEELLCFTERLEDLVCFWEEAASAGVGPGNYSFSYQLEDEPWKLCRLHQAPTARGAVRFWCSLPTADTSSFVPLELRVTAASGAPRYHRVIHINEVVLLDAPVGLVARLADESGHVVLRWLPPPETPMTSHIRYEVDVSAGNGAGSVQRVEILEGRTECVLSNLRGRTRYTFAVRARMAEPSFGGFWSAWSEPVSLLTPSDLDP

[12] = molecular target: T12, rHuman Erythropoietin R/Fc Chimera, CF (R&D Systems Cat#963-ER) (human, UniProt P19235 25-250); assay: Multispot ECL (MSD) titration; antigen spotted on plate; Fab 232.5 nM; blank spot 460
T12 construct: Bought Fc chimera; also called EPO R/Fc; EPO R; Fc part of the bought chimera not given
T12 sequence (looked up): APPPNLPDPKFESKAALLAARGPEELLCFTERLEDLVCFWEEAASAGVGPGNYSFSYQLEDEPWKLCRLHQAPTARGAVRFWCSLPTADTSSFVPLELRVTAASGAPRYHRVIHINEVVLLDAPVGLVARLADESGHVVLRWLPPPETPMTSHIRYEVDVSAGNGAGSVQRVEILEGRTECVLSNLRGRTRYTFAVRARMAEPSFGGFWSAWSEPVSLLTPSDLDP

[13] = molecular target: T13, Recombinant Human DLL4 (R&D Systems Cat#1506-D4/CF) (human, UniProt Q9NR61 27-524); assay: as above
T13 construct: Bought recombinant protein; also called delta-like protein 4; rHuman DLL4

[14] = molecular target: T14, rHuman ErbB2/Fc Chimera, CF (R&D Systems Cat#1129-ER) (human, UniProt P04626 23-652); assay: as above
T14 construct: Bought Fc chimera; also called human epidermal growth factor 2 receptor; Fc part of the bought chimera not given

[15] = molecular target: T15, rHuman Notch-1/Fc Chimera, CF (R&D Systems Cat#3647-TK) (human, UniProt P46531 19-526); assay: as above
T15 construct: Bought Fc chimera; Fc part of the bought chimera not given

[16] = molecular target: T16, rHuman CD44/Fc Chimera, CF (R&D Systems Cat#3660-CD) (human, UniProt P16070 21-220); assay: as above
T16 construct: Bought Fc chimera; Fc part of the bought chimera not given

[17] = molecular target: T17, rHuman IGF-1 sR (IGF-1 sR), CF (R&D Systems Cat#391-GR) (human, UniProt P08069 31-932); assay: as above
T17 construct: Bought soluble receptor; also called insulin-like growth factor-1 soluble receptor

[18] = molecular target: T18, rHuman P-Cadherin/Fc Chimera, CF (R&D Systems Cat#861-PC) (human, UniProt P22223 108-654); assay: as above
T18 construct: Bought Fc chimera; Fc part of the bought chimera not given

T6 sequence (P08581 25-932, change not shown): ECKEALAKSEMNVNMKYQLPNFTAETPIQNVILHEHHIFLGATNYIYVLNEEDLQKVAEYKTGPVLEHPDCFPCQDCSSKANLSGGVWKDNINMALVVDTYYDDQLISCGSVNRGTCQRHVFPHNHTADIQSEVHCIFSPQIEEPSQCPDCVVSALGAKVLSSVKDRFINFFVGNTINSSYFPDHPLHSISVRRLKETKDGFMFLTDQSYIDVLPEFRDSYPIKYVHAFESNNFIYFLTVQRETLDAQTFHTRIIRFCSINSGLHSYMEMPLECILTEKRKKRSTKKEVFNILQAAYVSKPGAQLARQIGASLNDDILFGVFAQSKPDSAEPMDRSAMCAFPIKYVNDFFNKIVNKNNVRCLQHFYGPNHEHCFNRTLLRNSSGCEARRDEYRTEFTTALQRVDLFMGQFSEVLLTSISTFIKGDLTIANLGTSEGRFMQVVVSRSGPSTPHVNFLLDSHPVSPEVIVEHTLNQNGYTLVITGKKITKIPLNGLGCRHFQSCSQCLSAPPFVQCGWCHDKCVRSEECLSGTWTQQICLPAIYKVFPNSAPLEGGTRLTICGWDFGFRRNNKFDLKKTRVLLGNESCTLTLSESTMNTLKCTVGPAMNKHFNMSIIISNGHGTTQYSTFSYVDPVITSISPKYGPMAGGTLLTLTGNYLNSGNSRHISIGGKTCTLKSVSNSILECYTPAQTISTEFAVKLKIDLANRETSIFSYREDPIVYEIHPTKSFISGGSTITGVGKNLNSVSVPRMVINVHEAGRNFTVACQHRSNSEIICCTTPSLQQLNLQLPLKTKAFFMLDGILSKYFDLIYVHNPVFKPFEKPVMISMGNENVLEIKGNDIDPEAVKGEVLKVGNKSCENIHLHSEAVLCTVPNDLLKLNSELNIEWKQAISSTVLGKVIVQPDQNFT

B1: Fab VH1-46_IGHD6-6*01_IGHJ1*01 & L6_IGKJ1*01 (Fab, V domains shown)
VH: QVQLVQSGAEVKKPGASVKVSCKASGYTFTSYYMHWVRQAPGQGLEWMGIINPSGGSTSYAQKFQGRVTMTRDTSTSTVYMELSSLRSEDTAVYYCAREEYSSSSAEYFQHWGQGTLVTVSS
VL: not shown
notes: Only variable domains are tied to the molecule; Tested as a Fab made in E. coli: heavy chain from Plasmid A (CH1 constant region, His6 and Flag tags), kappa light chain from Plasmid C (kappa CL); also called parent Hit Fab against DLL4; VH1-46_IGHD6-6*01_IGHJ1*01 & L6_IGKJ1*01 (parental)
ECL signal [1]: 247 ECL signal | ECL signal [2]: 322 ECL signal | ECL signal [3]: 373 ECL signal

B2: Fab VH1-46_IGHD3-10*01_IGHJ4*01 & B3_IGKJ1*01 (Fab, V domains shown)
VH: QVQLVQSGAEVKKPGASVKVSCKASGYTFTSYYMHWVRQAPGQGLEWMGIINPSGGSTSYAQKFQGRVTMTRDTSTSTVYMELSSLRSEDTAVYYCAREYYYGSGSYYNDYFDYWGQGTLVTVSS
VL: not shown
notes: Tested as a Fab made in E. coli; VH was cloned into Plasmid A (CH1 constant region, His6 and Flag tags); The kappa VL was cloned into Plasmid C (kappa CL)
ECL signal [4]: 660 | ECL signal [5]: 769 | ECL signal [6]: 606 | ECL signal [7]: 715 | ECL signal [8]: 556 | ECL signal [9]: 528 | ECL signal [10]: 649 | ECL signal [11]: 4100

B3: Fab VH1-46_IGHD6-13*01_IGHJ4*01 & O1_IGKJ1*01 (Fab, V domains shown)
VH: QVQLVQSGAEVKKPGASVKVSCKASGYTFTSYYMHWVRQAPGQGLEWMGIINPSGGSTSYAQKFQGRVTMTRDTSTSTVYMELSSLRSEDTAVYYCAREGYSSSWYDYFDYWGQGTLVTVSS
VL: DIVMTQTPLSLPVTPGEPASISCRSSQSLLDSDDGNTYLDWYLQKPGQSPQLLIYTLSYRASGVPDRFSGSGSGTDFTLKISRVEAEDVGVYYCMQRIEFPSWTFGQGTKVEIKR
notes: Germline library Fab expressed in E. coli; VH was cloned into Plasmid A (CH1 constant region, His6 and Flag tags); The kappa VL was cloned into Plasmid C (kappa CL)
ECL signal [12]: 1470 | ECL signal [13]: 3590 | ECL signal [14]: 779 | ECL signal [15]: 778 | ECL signal [16]: 607 | ECL signal [17]: 569 | ECL signal [18]: 655
